Results: patent US20230056252A1 (Gilead, published 2023)
Numbering of substitutions follows the chain as printed.

B1: hPGT121.66 AAS + W/huSP34.3.8 scFv AAS + SAV + R (bispecific antibody, human IgG1, lambda, L234A L235A)
chain: EVQLVESGGGLVQPGGSLRLSCAASGFTFNTYAMNWVRQAPGKGLEWVGRIRSKYNNYATYYADSVKGRFTISRDDSKNSLYLQMNSLRTEDTAVYYCVRHGNFGHSYVSWFAYWGQGTLVTVSSGGGGSGGGGSGGGGSGGGGSQAVVTQEPSLTVSPGGTVTLTCGSSTGAVTTGHYANWVQQKPGQAPRGLIGGTNKRAPGVPARFSGSLLGGKAALTISGAQPEDEAEYYCALWYSNRWVFGGGTKLTVLEPKSSDKTHTCPPCPAPEAAGGPSVFLFPPKPKDTLMISRTPEVTCVVVDVSHEDPEVKFNWYVDGVEVHNAKTKPREEQYNSTYRVVSVLTVLHQDWLNGKEYKCKVSNKALPASIEKTISKAKGQPREPQVYTLPPSREEMTKNQVSLSCAVKGFYPSDIAVEWESNGQPENNYKTTPPVLDSDGSFFLVSKLTVDKSRWQQGNVFSCSVMHEALHNRYTQKSLSLSPGK
heavy: QMQLQESGPGLVKPSETLSLTCSVSGASISDSYWSWIRRSPGKGLEWIGYVHKSGDTNYNPSLKSRVHLSLDTSKNQVSLSLTGVTAADSGKYYCARTLHGRRIYGIVAFNEWFTYFYMDVWGTGTQVTVSSASTKGPSVFPLAPSSKSTSGGTAALGCLVKDYFPEPVTVSWNSGALTSGVHTFPAVLQSSGLYSLSSVVTVPSSSLGTQTYICNVNHKPSNTKVDKKVEPKSCDKTHTCPPCPAPEAAGGPSVFLFPPKPKDTLMISRTPEVTCVVVDVSHEDPEVKFNWYVDGVEVHNAKTKPREEQYNSTYRVVSVLTVLHQDWLNGKEYKCKVSNKALPASIEKTISKAKGQPREPQVYTLPPSREEMTKNQVSLWCLVKGFYPSDIAVEWESNGQPENNYKTTPPVLDSDGSFFLYSKLTVDKSRWQQGNVFSCSVMHEALHNHYTQKSLSLSPGK
light: not shown
B2: hPGT121.66 AAS + W/huSP34.13.8 scFv AAS + SAV + R (bispecific antibody, human IgG1, lambda, L234A L235A)
chain: B1 chain with N30S, D64A, S80T
heavy: B1 heavy
light: not shown
notes: also called 261; bispecific 261
B3: hPGT121.66 AAS + W/huSP34.34.3 scFv AAS + SAV + R (bispecific antibody, human IgG1, lambda, L234A L235A)
chain: not shown
heavy: B1 heavy
light: not shown
B4: h3BNC117.52.64 AAS + SAV + YTE/huSP34.3.13 scFv AAS + W + YTE (bispecific antibody, human IgG1, kappa, L234A L235A)
chain: B1 chain with N199S, K200N, M291Y, S293T, T295E, S405W, A407L, V446Y, R474H
heavy: QVQLLQSGAAVTKPGASVRVSCEASGYNIRDYFIHWWRQAPGQGLQWVGWINPKTGQPNNPRQFQGRVSLTRHASFDFDTFSFYMDLKALRSDDTAVYFCARQRSDYWDFDVWGSGTQVTVSSASTKGPSVFPLAPSSKSTSGGTAALGCLVKDYFPEPVTVSWNSGALTSGVHTFPAVLQSSGLYSLSSVVTVPSSSLGTQTYICNVNHKPSNTKVDKKVEPKSCDKTHTCPPCPAPEAAGGPSVFLFPPKPKDTLYITREPEVTCVVVDVSHEDPEVKFNWYVDGVEVHNAKTKPREEQYNSTYRVVSVLTVLHQDWLNGKEYKCKVSNKALPASIEKTISKAKGQPREPQVYTLPPSREEMTKNQVSLSCAVKGFYPSDIAVEWESNGQPENNYKTTPPVLDSDGSFFLVSKLTVDKSRWQQGNVFSCSVMHEALHNHYTQKSLSLSPGK
light: DIQMTQSPSSLSASVGDTATITCQANGYLNWYQQRRGKAPKLLIYDGSKLERGVPSRFSGRRWGQEYNLTINNLQPEDIATYFCQVYEFVVPGTRLDLKRTVAAPSVFIFPPSDEQLKSGTASVVCLLNNFYPREAKVQWKVDNALQSGNSQESVTEQDSKDSTYSLSSTLTLSKADYEKHKVYACEVTHQGLSSPVTKSFNRGEC
B5: hPGT121.66 AAS W/huSP34.39.13 scFv AAS + SAV + R (bispecific antibody, human IgG1, lambda, L234A L235A)
chain: B1 chain with G68S, Q84E, N199S, K200N
heavy: B1 heavy
light: not shown
B6: hPGT121.66 AAS + W/huSP34.40.13 scFv AAS + SAV + R (bispecific antibody, human IgG1, lambda, L234A L235A)
chain: B1 chain with T60A, G68S, N199S, K200N
heavy: B1 heavy
light: not shown
notes: also called 276; bispecific 276
B7: hPGT121.66 AAS + W/huSP34.41.13 scFv AAS + SAV + R (bispecific antibody, human IgG1, lambda, L234A L235A)
chain: B1 chain with R19S, G68S, N199S, K200N
heavy: B1 heavy
light: not shown
B8: hCD4D1.22 Fc AAS + W + YTE/huSP34.39.13 AAS + SAV + R (bispecific antibody, human IgG1, lambda, L234A L235A)
chain: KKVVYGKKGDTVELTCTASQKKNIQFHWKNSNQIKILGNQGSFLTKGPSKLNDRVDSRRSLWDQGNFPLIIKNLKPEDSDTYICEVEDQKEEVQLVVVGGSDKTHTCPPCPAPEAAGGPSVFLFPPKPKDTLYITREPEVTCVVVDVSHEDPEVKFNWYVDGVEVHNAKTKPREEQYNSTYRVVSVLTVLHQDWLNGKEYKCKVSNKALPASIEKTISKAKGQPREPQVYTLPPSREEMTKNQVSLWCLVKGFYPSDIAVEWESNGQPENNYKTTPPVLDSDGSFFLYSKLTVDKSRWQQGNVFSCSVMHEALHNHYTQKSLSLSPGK
heavy: EVQLVESGGGLVQPGGSLRLSCAASGFTFNTYAMNWVRQAPGKGLEWVGRIRSKYNNYATYYADSVKSRFTISRDDSKNSLYLEMNSLRTEDTAVYYCVRHGNFGHSYVSWFAYWGQGTLVTVSSASTKGPSVFPLAPSSKSTSGGTAALGCLVKDYFPEPVTVSWNSGALTSGVHTFPAVLQSSGLYSLSSVVTVPSSSLGTQTYICNVNHKPSNTKVDKKVEPKSCDKTHTCPPCPAPEAAGGPSVFLFPPKPKDTLMISRTPEVTCVVVDVSHEDPEVKFNWYVDGVEVHNAKTKPREEQYNSTYRVVSVLTVLHQDWLNGKEYKCKVSNKALPASIEKTISKAKGQPREPQVYTLPPSREEMTKNQVSLSCAVKGFYPSDIAVEWESNGQPENNYKTTPPVLDSDGSFFLVSKLTVDKSRWQQGNVFSCSVMHEALHNRYTQKSLSLSPGK
light: QAVVTQEPSLTVSPGGTVTLTCGSSTGAVTTGHYANWVQQKPGQAPRGLIGGTSNRAPGVPARFSGSLLGGKAALTISGAQPEDEAEYYCALWYSNRWVFGGGTKLTVLGQPKAAPSVTLFPPSSEELQANKATLVCLISDFYPGAVTVAWKADSSPVKAGVETTTPSKQSNNKYAASSYLSLTPEQWKSHRSYSCQVTHEGSTVEKTVAPTECS
notes: also called 180; bispecific 180
B9: hCD4D1.22 Fc AAS + W + YTE/huSP34.40.13 AAS + SAV + R (bispecific antibody, human IgG1, lambda, L234A L235A)
chain: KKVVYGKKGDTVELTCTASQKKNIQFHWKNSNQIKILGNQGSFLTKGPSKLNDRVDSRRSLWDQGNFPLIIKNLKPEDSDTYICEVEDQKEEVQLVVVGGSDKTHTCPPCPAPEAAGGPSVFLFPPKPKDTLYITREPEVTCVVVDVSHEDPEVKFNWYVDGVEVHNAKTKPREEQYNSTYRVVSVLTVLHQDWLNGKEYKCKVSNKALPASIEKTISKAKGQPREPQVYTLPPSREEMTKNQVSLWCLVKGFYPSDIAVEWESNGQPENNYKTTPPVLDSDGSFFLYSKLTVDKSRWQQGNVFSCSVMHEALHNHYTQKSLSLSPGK
heavy: B8 heavy with T60A, E84Q
light: B8 light
notes: also called 188; bispecific 188
B10: hCD4D1.22 Fc AAS + W + YTE/huSP34.41.13 AAS + SAV + R (bispecific antibody, human IgG1, lambda, L234A L235A)
chain: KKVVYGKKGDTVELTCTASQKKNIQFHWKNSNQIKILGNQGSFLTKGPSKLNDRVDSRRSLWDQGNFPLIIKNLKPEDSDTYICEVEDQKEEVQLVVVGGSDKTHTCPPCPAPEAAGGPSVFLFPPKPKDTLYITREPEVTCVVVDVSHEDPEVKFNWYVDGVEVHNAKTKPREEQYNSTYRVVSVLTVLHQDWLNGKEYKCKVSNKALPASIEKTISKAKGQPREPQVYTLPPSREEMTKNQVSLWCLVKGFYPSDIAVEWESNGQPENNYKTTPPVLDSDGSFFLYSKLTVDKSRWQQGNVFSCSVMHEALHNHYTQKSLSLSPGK
heavy: B8 heavy with R19S, E84Q
light: B8 light

What follows are binders tested against T1, biotinylated CD3 epsilon:delta heterodimer protein (Amsbio AMS.CDD-H52WO) (Homo sapiens (Human), UniProt P07766 23-126; P04234 22-105) (assay: BLI (Octet), CD3 on SA sensor, bispecific analyte).
T1 construct: also called CD3 heterodimer

Row | Binder | Kd [nM] | koff [s⁻¹] | kon [M⁻¹ s⁻¹]
1 | B1 | 7.1 | 0.000475 | 66600
2 | B2 | 20.8 | 0.000947 | 48500
3 | B3 | 10.3 | 0.00619 | 620000

Each binder was assayed against T2, biotinylated Human CD3E and CD3D (Acro Biosystems Cat CDD-H82W1) (human, UniProt P07766 23-126; P04234 22-105) (assay: SPR (Biacore 4000), CD3 captured on streptavidin chip;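 also: bispecific antibodies or Fabs injected at several concentrations over CD3 surfaces of varying density, sensorgrams fitted with a simple kinetic model to obtain association, dissociation and equilibrium constants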).
T2 construct: also called biotinylated CD3

Row | Binder | Kd [nM] | koff [s⁻¹] | kon [M⁻¹ s⁻¹]
4 | B1 | 2.5 | 0.0071 | 2.8e+06
5 | B4 | 2.7 | 0.0087 | 3.3e+06
6 | B5 | 2.6 | 0.009 | 3.4e+06
7 | B3 | 43 | 0.017 | 390000
8 | B6 | 1.8 | 0.0063 | 3.6e+06
9 | B7 | 2.8 | 0.0085 | 3e+06
10 | B8 | 2.5 | 0.0049 | 2e+06
11 | B9 | 1.6 | 0.0036 | 2.2e+06
12 | B10 | 2 | 0.0047 | 2.4e+06
